Where a chain is given by its changes, count along the chain named. Names and notes keep the numbering of the source.
Assays:
Assay type in all cases: biochemical, B. amyloliquefaciens
[1] = substrate: CC(C)C[C@H](NC(=O)[C@@H]1CCCN1C(=O)[C@H](C)NC(=O)[C@H](C)NC(=O)CCC(=O)O)C(=O)Nc1ccc([N+](=O)[O-])cc1; test: Kinetics of hydrolysis of succinyl-Ala-Ala-Pro-X-p-nitroanilide substrates (progress curve analysis); details: other: Table VIII; substrate succinyl-L-AlaL-AlaL-ProL-[X]-p-nitroanilide, X = label (P1 amino acid)
Description: (§1) A change in substrate specificity is defined as a difference between the kcat/Km ratio of the precursor carbonyl hydrolase and that of the hydrolase mutant. The kcat/Km ratio is a measure of catalytic efficienty. Carbonyl hydrolase mutants with increased or diminished kcat/Km ratios are described in the examples. Generally, the objective will be to secure a mutant having a greater (numerically large) kcat/Km ratio for a given substrate, thereby enabling the use of the enzyme to more efficiently act on a target substrate. A substantial change in kcat/Km ratio is preferably at least 2-fold increase or decrease. However, smaller increases or decreases in the ratio (e.g., at least 1.5-fold) are also considered substantial. An increase in kcat/Km ratio for one substrate may be accompanied by a reduction in kcat/Km ratio for another substrate. […] Km and kcat are measured in accord with known procedures, as described in EPO Publication No. 0130756 or as described herein.
(§2) Wild-type subtilisin was purified from B. subtilis culture supernatants expressing the B. amyloliquefaciens subtilisin gene (Wells, J.A., et al. (1983) Nucleic Acids Res. 11, 7911-7925) as previously described (Estell, D.A., et al. (1985) J. Biol. Chem. 260, 6518-6521). Details of the synthesis of tetrapeptide substrates having the form succinyl-L-AlaL-AlaL-ProL-[X]-p-nitroanilide (where X is the P1 amino acid) are described by DelMar, E.G., et al. (1979) Anal. Biochem. 99, 316-320. Kinetic parameters, Km(M) and kcat-(s-^1) were measured using a modified progress curve analysis (Estell, D.A., et al. (1985) J. Biol. Chem. 260, 6518-6521). Briefly, plots of rate versus product concentration were fit to the differential form of the rate equation using a non-linear regression algorithm. Errors in kcat and Km for all values reported are less than five percent. The various substrates in Table VIII are ranged in order of decreasing hydrophobicity. Nozaki, Y. (1971), J. Biol. Chem. 246, 2211-2217; Tanford C. (1978) Science 200, 1012).

[2] = substrate: CSCC[C@H](NC(=O)[C@@H]1CCCN1C(=O)[C@H](C)NC(=O)[C@H](C)NC(=O)CCC(=O)O)C(=O)Nc1ccc([N+](=O)[O-])cc1; test: as above; details: other: Table XIV, 156 Glu / 166 Gly(wt); value in parentheses; synthetic substrate with label as P-1 amino acid
Description: as §1, §2

[3] = substrate: C[C@H](NC(=O)CCC(=O)O)C(=O)N[C@@H](C)C(=O)N1CCC[C@H]1C(=O)NCC(=O)Nc1ccc([N+](=O)[O-])cc1; test: as above; details: other: Table VIII; substrate succinyl-L-AlaL-AlaL-ProL-[X]-p-nitroanilide, X = label (P1 amino acid)
Description: as §1, §2

[4] = substrate: C[C@H](NC(=O)CCC(=O)O)C(=O)N[C@@H](C)C(=O)N1CCC[C@H]1C(=O)N[C@@H](C)C(=O)Nc1ccc([N+](=O)[O-])cc1; test: as above
Description: as §1, §2

[5] = substrate: C[C@H](NC(=O)CCC(=O)O)C(=O)N[C@@H](C)C(=O)N1CCC[C@H]1C(=O)N[C@@H](CCC(=O)O)C(=O)Nc1ccc([N+](=O)[O-])cc1; test: as above
Description: as §1, §2

[6] = substrate: C[C@H](NC(=O)CCC(=O)O)C(=O)N[C@@H](C)C(=O)N1CCC[C@H]1C(=O)N[C@@H](CCC(N)=O)C(=O)Nc1ccc([N+](=O)[O-])cc1; test: as above; details: other: Table XIV, 156 Glu / 166 Gly(wt); value in parentheses; synthetic substrate with label as P-1 amino acid
Description: as §1, §2

[7] = substrate: C[C@H](NC(=O)CCC(=O)O)C(=O)N[C@@H](C)C(=O)N1CCC[C@H]1C(=O)N[C@@H](CCCCN)C(=O)Nc1ccc([N+](=O)[O-])cc1; test: as above; details: other: Table XIV, 156 Glu / 166 Gly(wt); value in parentheses; synthetic substrate with label as P-1 amino acid
Description: as §1, §2

[8] = substrate: C[C@H](NC(=O)CCC(=O)O)C(=O)N[C@@H](C)C(=O)N1CCC[C@H]1C(=O)N[C@@H](CO)C(=O)Nc1ccc([N+](=O)[O-])cc1; test: as above; details: other: Table VIII; substrate succinyl-L-AlaL-AlaL-ProL-[X]-p-nitroanilide, X = label (P1 amino acid)
Description: as §1, §2

[9] = substrate: C[C@H](NC(=O)CCC(=O)O)C(=O)N[C@@H](C)C(=O)N1CCC[C@H]1C(=O)N[C@@H](Cc1c[nH]cn1)C(=O)Nc1ccc([N+](=O)[O-])cc1; test: as above; details: other: Table VIII; substrate succinyl-L-AlaL-AlaL-ProL-[X]-p-nitroanilide, X = label (P1 amino acid)
Description: as §1, §2

[10] = substrate: C[C@H](NC(=O)CCC(=O)O)C(=O)N[C@@H](C)C(=O)N1CCC[C@H]1C(=O)N[C@@H](Cc1ccc(O)cc1)C(=O)Nc1ccc([N+](=O)[O-])cc1; test: as above; details: other: Table VIII; substrate succinyl-L-AlaL-AlaL-ProL-[X]-p-nitroanilide, X = label (P1 amino acid)
Description: as §1, §2

[11] = substrate: C[C@H](NC(=O)CCC(=O)O)C(=O)N[C@@H](C)C(=O)N1CCC[C@H]1C(=O)N[C@@H](Cc1ccccc1)C(=O)Nc1ccc([N+](=O)[O-])cc1; test: as above; details: other: Table V; substrate not given; Km in M
Description: as §1, §2

[12] = substrate: C[C@H](NC(=O)[C@@H]1CCCN1C(=O)[C@H](C)NC(=O)[C@H](Cc1ccccc1)NC(=O)CCC(=O)O)C(=O)Nc1ccc([N+](=O)[O-])cc1; test: as above; details: other: Table XI, WT
Description: as §1, §2

[13] = substrate: C[C@H](NC(=O)[C@H](Cc1ccccc1)NC(=O)CCC(=O)O)C(=O)N1CCC[C@H]1C(=O)N[C@@H](Cc1ccccc1)C(=O)Nc1ccc([N+](=O)[O-])cc1; test: as above; details: other: Table XI, WT
Description: as §1, §2

[14] = substrate: CSCC[C@H](NC(=O)[C@@H]1CCCN1C(=O)[C@H](C)NC(=O)[C@H](C)NC(=O)CCC(=O)O)C(=O)Nc1ccc([N+](=O)[O-])cc1; test: Kinetics of p-nitroanilide substrate hydrolysis, M166; details: other: Table XIV, 156 Glu / 166 Met; value in parentheses; synthetic substrate with label as P-1 amino acid
Description: as §2
(§3) To probe the change in substrate specificity caused by steric alterations in the S-1 subsite, position 166 mutants were kinetically analyzed versus P1 substrates of increasing size (i.e., Ala, Met, Phe and Tyr). Ratios of kcat/Km are presented in log form in Figure 15 to allow direct comparisons of transition-state binding energies between various enzyme-substrate pairs.
(§4) To isolate the contribution of electrostatics to substrate specificity from other chemical binding forces, these various single and double mutants were analyzed for their ability to bind and cleave synthetic substrates containing Glu, Gln, Met and Lys as the P-1 substrate amino acid. This permitted comparisons between side-chains that were more sterically similar but differed in charge (e.g., Glu versus Gln, Lys versus Met). Similarly, mutant enzymes were assayed against homologous P-1 substrates that were most sterically similar but differed in charge (Table XIV).
(§5) The kcat/Km ratios shown are the second order rate constants for the conversion of substrate to product, and represent the catalytic efficiency of the enzyme. These ratios are presented in logarithmic form to scale the data, and because log kcat/Km is proportional to the lowering of transition-state activation energy (△GT). Mutations at position 156 and 166 produce changes in catalytic efficiency toward Glu, Gln, Met and Lys P-1 substrates of 3100, 60, 200 and 20 fold, respectively.

[15] = substrate: C[C@H](NC(=O)CCC(=O)O)C(=O)N[C@@H](C)C(=O)N1CCC[C@H]1C(=O)N[C@@H](CCC(=O)O)C(=O)Nc1ccc([N+](=O)[O-])cc1; test: as above; details: other: Table XIV, 156 Glu / 166 Met; value in parentheses; synthetic substrate with label as P-1 amino acid
Description: as §2, §3, §4, §5

[16] = substrate: C[C@H](NC(=O)CCC(=O)O)C(=O)N[C@@H](C)C(=O)N1CCC[C@H]1C(=O)N[C@@H](CCC(N)=O)C(=O)Nc1ccc([N+](=O)[O-])cc1; test: as above; details: other: Table XIV, 156 Glu / 166 Met; value in parentheses; synthetic substrate with label as P-1 amino acid
Description: as §2, §3, §4, §5

[17] = substrate: C[C@H](NC(=O)CCC(=O)O)C(=O)N[C@@H](C)C(=O)N1CCC[C@H]1C(=O)N[C@@H](CCCCN)C(=O)Nc1ccc([N+](=O)[O-])cc1; test: as above; details: other: Table XIV, 156 Glu / 166 Met; value in parentheses; synthetic substrate with label as P-1 amino acid
Description: as §2, §3, §4, §5

[18] = other: Table VIII, substrate succinyl-L-AlaL-AlaL-ProL-[X]-p-nitroanilide, X = label (P1 amino acid)
[19] = other: Table XIII, Glu156/Gly166 (WT), synthetic substrate with label as P-1 residue

B1: B. amyloliquefaciens subtilisin, wild type (WT, Gly166) (Bacillus amyloliquefaciens) (protein)
chain: AQSVPYGVSQIKAPALHSQGYTGSNVKVAVIDSGIDSSHPDLKVAGGASMVPSETNPFQDNNSHGTHVAGTVAALNNSIGVLGVAPSASLYAVKVLGADGSGQYSWIINGIEWAIANNMDVINMSLGGPSGSAALKAAVDKAVASGVVVVAAAGNEGTSGSSSTVGYPGKYPSVIAVGAVDSSNQRASFSSVGPELDVMAPGVSIQSTLPGNKYGAYNGTSMASPHVAGAAALILSKHPNWTNTQVRSSLENTTTKLGDSFYYGKGLINVQAAAQ
notes: at various amino acid residues within the mature form of the subtilisin molecule; made in house; host or cells: Bacillus subtilis (secreted, culture supernatant)
kcat [1]: 24 S^-1
kcat/Km [1]: 75,000 s-^1M-1
Km [2]: 107 µM
kcat [2]: 13 S^-1
kcat/Km [2]: 120,000 s-^1M-1
kcat [3]: 0.003 S^-1
kcat/Km [3]: 21 s-^1M-1
kcat [4, 18]: 1.9 S^-1
kcat/Km [4, 18]: 11,000 s-^1M-1
Km ([4]; other: Table XI, WT): 230 µM
kcat ([4]; other: Table XI, WT): 3.2 s-^1
kcat/Km ([4]; other: Table XI, WT): 14000 M⁻¹ s⁻¹
Km [5, 19]: 34000 µM
kcat [5, 19]: 0.54 s-^1
kcat/Km [5, 19]: 16 M⁻¹ s⁻¹
Km ([5]; other: Table XIV, 156 Glu / 166 Gly(wt), value in parentheses, synthetic substrate with label as P-1 amino acid): 33900 µM
Km [6]: 447 µM
kcat [6]: 3.2 S^-1
kcat/Km [6]: 7,100 s-^1M-1
Km [7]: 741 µM
kcat [8]: 2.8 S^-1
kcat/Km [8]: 4,200 s-^1M-1
kcat [9]: 7.9 S^-1
kcat/Km [9]: 13,000 s-^1M-1
kcat [10]: 28 S^-1
kcat/Km [10]: 1,100,000 s-^1M-1
Km [11]: 140 µM
kcat [11]: 50.0 s-^1
kcat/Km [11]: 360000 M⁻¹ s⁻¹
Km [12]: 73 µM
kcat [12]: 0.32 s-^1
kcat/Km [12]: 4400 M⁻¹ s⁻¹
Km [13]: 180 µM
kcat [13]: 26.0 s-^1
kcat/Km [13]: 150000 M⁻¹ s⁻¹

B2: B. amyloliquefaciens subtilisin variant Glu156/M166 (Gly166 to Met) (Bacillus amyloliquefaciens; G273M) (protein)
chain: B1 chain with G166M
notes: at various amino acid residues within the mature form of the subtilisin molecule; made in house; host or cells: Bacillus subtilis BG2036
Km [14]: 14.8 µM
Km [15]: 5010 µM
Km [16]: 646 µM
Km [17]: 129 µM

Source: patent publication EP0251446B1, “Non-human Carbonyl hydrolase mutants, DNA sequences and vectors encoding same and hosts transformed with said vectors” (GENENCOR INTERNATIONAL, INC., priority 1986, dated 1988)
